According to patent US20130156761A1:

Biological target: human CX3CR1 with FLAG tag at N-terminus, stably expressed on HEK293T cells (Multispan) (human) (UniProt P49238)
Test: cell-based or functional assay

Chain of human CX3CR1 with FLAG tag at N-terminus, stably expressed on HEK293T cells (Multispan) (human) (P49238 whole entry): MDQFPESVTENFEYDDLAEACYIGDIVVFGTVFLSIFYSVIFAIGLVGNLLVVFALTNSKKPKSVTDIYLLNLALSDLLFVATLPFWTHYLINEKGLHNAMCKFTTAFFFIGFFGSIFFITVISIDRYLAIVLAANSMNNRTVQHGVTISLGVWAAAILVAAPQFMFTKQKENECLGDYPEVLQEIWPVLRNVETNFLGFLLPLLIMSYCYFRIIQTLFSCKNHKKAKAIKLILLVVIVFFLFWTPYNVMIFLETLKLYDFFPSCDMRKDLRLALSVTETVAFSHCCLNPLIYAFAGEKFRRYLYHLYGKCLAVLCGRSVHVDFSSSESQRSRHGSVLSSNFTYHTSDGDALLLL

With “CX3CL1 (control agonist, Peprotech Cat#300-31) (from UniProt P78423 25-100) (ligand)” the EC80 of calcium flux was 40 nM.
